Data from paper PMC6726571.
Read-outs that look alike come from different tables or passages of the source.

How the values were obtained:
[1] = target: T1, SRSF3 (SRp20), recombinant (UniProt P84103 1-164); assay: pull-down
T1 sequence: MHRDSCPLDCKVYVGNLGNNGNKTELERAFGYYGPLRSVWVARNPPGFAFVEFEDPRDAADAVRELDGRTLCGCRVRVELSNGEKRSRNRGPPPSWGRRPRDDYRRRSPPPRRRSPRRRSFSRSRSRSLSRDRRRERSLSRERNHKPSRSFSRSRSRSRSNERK

[2] = target: T1, SRSF3 (SRp20), recombinant; assay: pull-down; remark: listed apart in the source

B1: CPEB2 exon 4 WT RNA, biotinylated (ssRNA)
RNA: GUGAGAUCUAGUUUGCAGUUGCCAGCUUGGGGCUCAGAUUCACUCCAAGAUAGUUGGUGCACUGCAGCCGGAACAUCCAGAAUAGACCAG
binding result [1]: binds

B2: CPEB2 exon 4 MUT RNA (CAUCC to GAGUC), biotinylated (ssRNA)
RNA: GUGAGAUCUAGUUUGCAGUUGCCAGCUUGGGGCUCAGAUUCACUCCAAGAUAGUUGGUGCACUGCAGCCGGAAGAGUCAGAAUAGACCAG
binding result [2]: no binding
